T1: human factor XII from plasma (Calbiochem) (human, UniProt P00748 20-615)
T1 construct: also called FXII
T1 sequence (looked up): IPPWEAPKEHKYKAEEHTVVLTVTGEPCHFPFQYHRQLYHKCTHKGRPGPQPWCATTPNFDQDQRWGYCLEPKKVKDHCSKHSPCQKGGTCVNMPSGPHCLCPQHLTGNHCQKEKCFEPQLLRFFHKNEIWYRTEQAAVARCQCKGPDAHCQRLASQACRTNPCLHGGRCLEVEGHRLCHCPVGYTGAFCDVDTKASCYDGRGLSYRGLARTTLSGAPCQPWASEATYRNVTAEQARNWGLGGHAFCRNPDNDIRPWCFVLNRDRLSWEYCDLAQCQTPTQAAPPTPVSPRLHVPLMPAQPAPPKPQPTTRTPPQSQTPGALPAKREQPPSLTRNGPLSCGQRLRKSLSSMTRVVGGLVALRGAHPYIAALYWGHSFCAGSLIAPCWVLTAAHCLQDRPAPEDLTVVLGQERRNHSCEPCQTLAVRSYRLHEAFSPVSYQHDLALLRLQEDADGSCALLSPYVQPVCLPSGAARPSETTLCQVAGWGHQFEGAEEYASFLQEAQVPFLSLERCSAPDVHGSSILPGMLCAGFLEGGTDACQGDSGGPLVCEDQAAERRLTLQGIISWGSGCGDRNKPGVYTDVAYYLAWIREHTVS


What was measured:
[1] = biological target: T2, tissue-type plasminogen activator (tPA, Actilyse, Boehringer-Ingelheim) (human, UniProt P00750 36-562); assay: tPA binding (data not shown)
T2 construct: Commercial product; also called recombinant human tPA

[2] = biological target: T1, human factor XII from plasma …; assay: ELISA, immobilized factor XII overlaid with a concentration series of β2GPI
[3] = biological target: T3, anti-β2GPI auto-antibodies purified from plasma of patients with the Anti-phospholipid syndrome; assay: competition ELISA: patient anti-β2GPI auto-antibodies with a β2GPI series in solution on immobilized plasma β2GPI
T3 construct: Polyclonal mixture; also called patient antibodies
Method: C. […] Eluted fractions are analyzed on Western blot after SDS-PA electrophoresis. […] Anti-β₂GPI auto-antibodies were purified from plasma of patients with the autoimmune disease Anti-phospholipid syndrome.

[4] = biological target: T2, tissue-type plasminogen activator (tPA, …); assay: ELISA, immobilized tPA overlaid with a concentration series of β2GPI

T2 sequence (P00750 36-562 limits assumed): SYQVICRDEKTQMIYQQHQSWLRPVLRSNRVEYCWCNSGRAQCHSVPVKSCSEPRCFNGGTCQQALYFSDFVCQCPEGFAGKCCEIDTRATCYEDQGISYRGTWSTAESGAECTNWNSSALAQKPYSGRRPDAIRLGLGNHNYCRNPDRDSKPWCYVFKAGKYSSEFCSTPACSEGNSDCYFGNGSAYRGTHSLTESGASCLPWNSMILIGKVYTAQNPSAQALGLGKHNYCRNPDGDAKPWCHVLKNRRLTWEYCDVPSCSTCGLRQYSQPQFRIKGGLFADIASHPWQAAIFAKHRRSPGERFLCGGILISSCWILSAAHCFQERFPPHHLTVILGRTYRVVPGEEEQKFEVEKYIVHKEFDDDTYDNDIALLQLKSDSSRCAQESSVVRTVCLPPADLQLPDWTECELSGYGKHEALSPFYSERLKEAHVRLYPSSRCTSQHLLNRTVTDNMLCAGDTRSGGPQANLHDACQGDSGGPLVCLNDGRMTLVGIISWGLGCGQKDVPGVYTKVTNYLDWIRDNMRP

binding result [1] | Kd [2] | IC50 (read off the curve) [3] | Kd [4] | Binder
binds | – | – | – | KRLEVDIDIGIRS (Preparation with cross-β structure; also called amyloid FP13 K157G) [amyloid fibrin peptide FP13 K157G]
– | 20 nM | ~5 µg/mL | 51 nM | recombinant human β2-glycoprotein I (other, UniProt P02749 20-345, looked up, also called recombinant β2GPI; rβ2GPI) GRTCPKPDDLPFSTVVPLKTFYEPGEEITYSCKPGYVSRGGMRKFICPLTGLWPINTLKCTPRVCPFAGILENGAVRYTTFEYPNTISFSCNTGFYLNGADSAKCTEEGKWSPELPVCAPIICPPPSIPTFATLRVYKPSAGNNSLYRDTAVFECLPQHAMFGNDTITCTTHGNWTKLPECREVKCPFPSRPDNGFVNYPAKPTLYYKDKATFGCHDGYSLDGPEEIECTKLGNWSAMPSCKASCKVPVKKATVVYQGERVKIQEKFKNGMLHGDKVSFFCKNKEKKCSYTEDAQCIDGTIEVPKCFKEHSSLAFWKTDASDVKPC

From patent US8067187 (CROSSBETA BIOSCIENCES B V, dated 2011)
